Laboratory results reported in paper PMC8591604, “Targeting Oncogenic Src Homology 2 Domain-Containing Phosphatase 2 (SHP2) by Inhibiting Its Protein–Protein Interactions” (Journal of Medicinal Chemistry, 2021).
Like-named read-outs stand apart in the source and are kept apart here. One block for each substance: values may come before it.

Key:
[1] = target: N-SH2 domain of SHP2 (residues 2–111) (human) (UniProt Q06124)
[2] = target: N-SH2 domain of SHP2 (residues 2–111) (human) (UniProt Q06124); remark: listed apart in the source
[3] = target: N-SH2 domain of SHP2 (residues 2–111) (human) (UniProt Q06124); assay: fluorescence polarisation; fluorescence anisotropy, displacement: 0.10 nM CF-P9W5 (0.5 nM for P8 and OP) with […] N-SH2 titrated with unlabelled peptide; fluorescence buffer

Kd [1]: 53 nM
Substance: CF-P9, fluorescently labeled IRS-1 pY1172 analogue (nine residues) (peptide)

Kd [2]: 6600 nM
Substance: CF-P9Y0, unphosphorylated analogue of the labeled IRS-1 pY1172 peptide

Kd [3]: 1.6 nM
Substance: P8W5, P8 analogue with W at position +5 (peptide)
